Results published in paper PMC3219716, “Indirect DNA Readout by an H-NS Related Protein: Structure of the DNA Complex of the C-Terminal Domain of Ler”.

T1: CT-Ler (Escherichia coli EHEC O157:H7, UniProt Q7DB51 70-116)
T1 chain: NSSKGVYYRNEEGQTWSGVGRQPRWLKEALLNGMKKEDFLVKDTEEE

T2: CT-H-NS (UniProt P0ACF8 95-137)
T2 chain: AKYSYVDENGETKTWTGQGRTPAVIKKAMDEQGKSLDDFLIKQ

T3: CT-Ler R90Q (Escherichia coli EHEC O157:H7, UniProt Q7DB51 70-116, R90Q)
T3 chain: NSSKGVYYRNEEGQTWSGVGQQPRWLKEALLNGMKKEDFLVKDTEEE

T4: CT-Ler R90G (Escherichia coli EHEC O157:H7, UniProt Q7DB51 70-116, R90G)
T4 chain: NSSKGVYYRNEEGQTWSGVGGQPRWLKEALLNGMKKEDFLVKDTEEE

B1: LeeF (dsDNA)
DNA 1: TTTCTTTTTTTATTGAAATAATTGATAATA
DNA 2: TATTATCAATTATTTCAATAAAAAAAGAAA
B2: LeeG (dsDNA)
DNA 1: AAATAATTGATAATAATGTTTTTGTTACGT
DNA 2: ACGTAACAAAAACATTATTATCAATTATTT
B3: AATT 10-mer (dsDNA)
DNA 1: CGCAATTGCG
DNA 2: CGCAATTGCG
B4: TATA 10-mer (dsDNA)
DNA 1: CGCTATAGCG
DNA 2: CGCTATAGCG
B5: LeeH (WT) (dsDNA)
DNA 1: GCGATAATTGATACC
DNA 2: GGTATCAATTATCGC
B6: LeeH T12C (dsDNA)
DNA 1: GCGATAATTGACACC
DNA 2: GGTGTCAATTATCGC
B7: LeeH T9C (dsDNA)
DNA 1: GCGATAATCGATACC
DNA 2: GGTATCGATTATCGC
B8: LeeH A13G (dsDNA)
DNA 1: GCGATAATTGATGCC
DNA 2: GGCATCAATTATCGC
B9: LeeH A11G (dsDNA)
DNA 1: GCGATAATTGGTACC
DNA 2: GGTACCAATTATCGC
B10: AAAT 10-mer (dsDNA)
DNA 1: CGCAAATGCG
DNA 2: CGCATTTGCG
B11: LeeH A4G (dsDNA)
DNA 1: GCGGTAATTGATACC
DNA 2: GGTATCAATTACCGC
B12: LeeH A6G (dsDNA)
DNA 1: GCGATGATTGATACC
DNA 2: GGTATCAATCATCGC
B13: LeeH T5C (dsDNA)
DNA 1: GCGACAATTGATACC
DNA 2: GGTATCAATTGTCGC
B14: LeeH A7G (dsDNA)
DNA 1: GCGATAGTTGATACC
DNA 2: GGTATCAACTATCGC
B15: AATA 10-mer (dsDNA)
DNA 1: CGCAATAGCG
DNA 2: CGCTATTGCG
B16: LeeH G10A (dsDNA)
DNA 1: GCGATAATTAATACC
DNA 2: GGTATTAATTATCGC
B17: AAAA 10-mer (dsDNA)
DNA 1: CGCAAAAGCG
DNA 2: CGCTTTTGCG
B18: LeeH T8C (dsDNA)
DNA 1: GCGATAACTGATACC
DNA 2: GGTATCAGTTATCGC
B19: AATTC 10-mer (dsDNA)
DNA 1: CGGAATTCCG
DNA 2: CGGAATTCCG
B20: TTAA 10-mer (dsDNA)
DNA 1: CGCTTAAGCG
DNA 2: CGCTTAAGCG
B21: LeeFG (dsDNA)
DNA 1: AAATAATTGATAATA
DNA 2: TATTATCAATTATTT

Molecular target: T1, CT-Ler
Experiment: fluorescence anisotropy; among highest affinities; Anisotropy: 40 mM HEPES pH 7.5, 60 mM K-glutamate, 0.01% NaN3, 20 C; EMSA: 15 mM Na-phosphate pH 7.5, 100 mM NaCl, 0.01% NaN3, room temperature; NMR structure:
Conditions: protein: recombinant; tags: N-terminal His6 (pHAT2); blunt
B1: binds.
B2: binds.

Molecular target: T2, CT-H-NS
Experiment: NMR titration (1H-15N HSQC); Anisotropy: 40 mM HEPES pH 7.5, 60 mM K-glutamate, 0.01% NaN3, 20 C; EMSA: 15 mM Na-phosphate pH 7.5, 100 mM NaCl, 0.01% NaN3, room temperature; NMR structure:
Conditions: protein: recombinant; tags: N-terminal His6 (pHAT2); blunt, self-complementary
Work on B3 yielded a Kd of about 41000 nM.
B4 gave a Kd of about 102000 nM.

Molecular target: T3, CT-Ler R90Q
Experiment: fluorescence anisotropy; Anisotropy: 40 mM HEPES pH 7.5, 60 mM K-glutamate, 0.01% NaN3, 20 C; EMSA: 15 mM Na-phosphate pH 7.5, 100 mM NaCl, 0.01% NaN3, room temperature; NMR structure:
Conditions: protein: recombinant; tags: N-terminal His6 (pHAT2); blunt
B5: no binding.

Molecular target: T4, CT-Ler R90G
Experiment: as above
Conditions: protein: recombinant; tags: N-terminal His6 (pHAT2); blunt
B5: no binding.

Molecular target: T1, CT-Ler
Experiment: as above
Conditions: protein: recombinant; tags: N-terminal His6 (pHAT2); blunt
Work on B6 yielded a Kd of 1450 ± 100 nM.
In the case of B7, the Kd is reported as 1360 ± 80 nM.
With B8 the Kd was 1480 ± 90 nM.
Work on B9 yielded a Kd of 1430 ± 40 nM.
B10 was tested, and the Kd was 6170 ± 360 nM.
Binder B11 has a Kd of 1060 ± 80 nM.
Work on B12 yielded a Kd of 2480 ± 200 nM.
B13 was tested, and the Kd was 1380 ± 110 nM.
B14 showed a Kd of 2710 ± 320 nM.
Binder B15 has a Kd of 11500 ± 960 nM.
With B16 the Kd was 2310 ± 70 nM.
With B17 the Kd was 8070 ± 220 nM.
B18 gave a Kd of 1700 ± 130 nM.
For B5, the Kd was 1100 ± 50 nM.

Same assay, conditions: protein: recombinant; tags: N-terminal His6 (pHAT2); blunt, self-complementary
With B19 the Kd was 4140 ± 310 nM.
B20 gave a Kd of 22800 ± 2990 nM.
Work on B3 yielded a Kd of 3450 ± 560 nM.
With B4 the Kd was 16600 ± 2200 nM.

Molecular target: T1, CT-Ler
Experiment: fluorescence anisotropy; deviates from 1:1 model, multiple binding suggested; Anisotropy: 40 mM HEPES pH 7.5, 60 mM K-glutamate, 0.01% NaN3, 20 C; EMSA: 15 mM Na-phosphate pH 7.5, 100 mM NaCl, 0.01% NaN3, room temperature; NMR structure:
Conditions: protein: recombinant; tags: N-terminal His6 (pHAT2); blunt
B21: binds.
